# The RNAGym collection of RNA variant scans (doi:10.7554/elife.90254)
# B1: OR4K15 (parent)
# chain: GUUAACGGUCAUAGGCCAUGGAAACUAGGAGCACCAUUUCGCUGCCAGUGAAGAAAUGAACAAAGAAAAUCUGGGCCAGGCAGGCAUCAAAAGAAAUAGUCUUGCGCUCAACCAGAAAGUCUGUAAUCAUUUUAAGGGUA
# Variants of: B1
# Assay: self-cleavage, relative activity (ratio to wild type); higher = more cleavage; in vitro, sequencing; the parent is a self-cleaving ribozyme
row,Variant,self-cleavage
1,U102C U122A,1.51
2,U102C U122C,1.24
3,U97A A116G,1.19
4,U102C C107G,0.01
5,U103A G138A,0.68
6,U97C U122G,2.57
7,U97C U122A,1.65
8,U103C A111U,0.1
9,U103C U132A,1.03
10,A98U A117G,1.63
11,A96G U139C,1.42
12,A98G G138U,0.6
13,C107U,0.02
14,C107G,0.02
15,C107A,0.03
16,C105A U108C,0.01
17,U108C U139A,0.04
18,A98G U102C,2.44
19,U97G U103C,0.69
20,A96G C113U,0.06
21,U103A U131C,0.45
22,A96G U103A,1.08
23,A96G U103G,0.03
24,U108C C109U,0.01

row,Variant,self-cleavage
1,U103C A114U,0.04
2,G106A A110G,0.01
3,G99A G136A,0.91
4,A98U U131A,0.49
5,U108A U120C,0.01
6,U108A U120A,0.02
7,U102C C109A,0.3
8,U108A U132A,0.01
9,U108A U132C,0.03
10,A98G A110G,0.06
11,A98G A110U,0.31
12,A96G A140U,1.93
13,U103C G138C,0.95
14,C101A U124C,0.08
15,U102C G138A,1.82
16,U103A A114U,0.05
17,U97A A135G,1.79
18,C101U U108C,0.01
19,U108A U130C,0.01
20,U102A U108C,0
21,U102C A129U,1.23
22,C105U U108C,0.02
23,A98U G104A,0.12
24,U102A A116G,0.18

row,Variant,self-cleavage
1,U108C A135G,0.01
2,U102C C105U,1.01
3,U103C A140G,1.38
4,U100C U127G,2.43
5,A98C U100C,2.44
6,U102C U130C,1.64
7,U97C A126G,1.22
8,A98G A114G,0.15
9,U108C A117U,0.01
10,U103C G104U,0.03
11,U100C A135U,2.37
12,U100C A135G,1.74
13,U97C A114U,0.1
14,A96G G106A,0.01
15,G106A A140U,0.05
16,A98U U100C,2.47
17,A96U U108C,0
18,G106A A135G,0.02
19,U97G A98G,1.98
20,U100A A111G,0.02
21,U97A U122C,1.83
22,G104A A110U,0.02
23,A96G C107A,0.01
24,G106U A129G,0.01

row,Variant,self-cleavage
1,U102C A111U,0.04
2,A98G U132A,0.41
3,A98G U127A,0.78
4,C107A U133A,0.02
5,A96U,1.88
6,A98U U102C,2.78
7,U100A U122C,0.28
8,U100C A117U,1.45
9,U100C A117G,2.56
10,U102C A125G,1.5
11,U100A A140U,0.83
12,U108C U122G,0
13,U108C U122C,0.01
14,U108C U122A,0.01
15,U102A G138A,0.55
16,U97A A118G,1.01
17,U108C C128U,0.04
18,U102A A118G,0.84
19,G104C,0.02
20,G104A,0.04
21,G104U,0.02
22,U100C A126U,0.32
23,A96U A98G,1.31
24,A98C U127C,1.94

row,Variant,self-cleavage
1,C107G A117G,0.01
2,U108C A125U,0.01
3,U103C A116U,0.23
4,U103C A116G,0.5
5,U102C A110U,1.94
6,C101U C105A,0.01
7,U103C U120A,1.55
8,U108G,0.02
9,U108A,0.02
10,U108C,0.01
11,U102A A125G,0.42
12,A96U U132C,1.95
13,A98G C109A,0.03
14,U103A A118G,0.41
15,U100C U132A,1.03
16,U100C U132G,2.82
17,U103C U108C,0.01
18,A98G U130C,0.41
19,U102C G106A,0.02
20,U102A U103C,0.12
21,U103A U120C,0.34
22,A96G G115A,0.07
23,C101A A114G,0.02
24,U103C A129G,0.56

row,Variant,self-cleavage
1,A98U A135G,2.4
2,U102C C113A,0.28
3,U102C C113U,0.33
4,U100A U130C,0.09
5,U100C U124A,2.17
6,U102C A140G,2.39
7,U102C U127C,1.56
8,G106C A116G,0.01
9,U108A G123C,0.01
10,U108A G123U,0.01
11,U97C U130C,0.85
12,U97C G136U,1.55
13,A98U U127C,1.98
14,G99U,0.51
15,G99A,0.56
16,G104A A140G,0.09
17,U97A U130C,1.59
18,U97C U132C,1.45
19,U97C U132A,1.28
20,U103G G137A,0.1
21,U103G G137U,0.05
22,C107A U108C,0.02
23,U102G A116G,0.62
24,U102A A110G,0.1

row,Variant,self-cleavage
1,A96G U132A,1.37
2,U108C A110C,0
3,U108C A110G,0.01
4,G106A U122A,0.01
5,U97C U124C,0.17
6,G106A U131C,0.03
7,U100A C105U,0.03
8,U108C U133A,0.01
9,U108C U133C,0.02
10,U97C A116U,0.11
11,U97C A116G,0.77
12,U97C U127C,1.25
13,U97C U127A,0.81
14,U102A U122C,0.55
15,U100A A117G,1.14
16,U108C G137A,0.01
17,G99U U103C,0.15
18,A98U A114U,0.12
19,A98U A114G,0.5
20,U103C G106A,0.02
21,U108C A126C,0.01
22,G106A A126G,0
23,U97C U131C,0.72
